These are literature values, as cited in paper PMC9887155, “Kinetics of cone specific G-protein signaling in avian photoreceptor cells” (Frontiers in Molecular Neuroscience, 2023).

pKd: −log10 of the molar value.

The series deals with Gtα (Bos taurus) (UniProt P04695). Briefly: SPR.
Gtα (Bos taurus), sequence (P04695 2-350): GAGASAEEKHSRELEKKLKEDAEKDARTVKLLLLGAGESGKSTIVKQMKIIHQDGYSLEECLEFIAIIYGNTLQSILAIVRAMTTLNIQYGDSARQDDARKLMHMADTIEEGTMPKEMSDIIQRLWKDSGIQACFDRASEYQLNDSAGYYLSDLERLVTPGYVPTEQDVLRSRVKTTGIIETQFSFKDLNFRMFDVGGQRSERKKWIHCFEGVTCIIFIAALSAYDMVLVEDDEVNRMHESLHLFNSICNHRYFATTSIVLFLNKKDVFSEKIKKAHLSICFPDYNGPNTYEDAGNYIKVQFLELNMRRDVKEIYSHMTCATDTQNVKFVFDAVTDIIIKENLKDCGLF

rhodopsin (dark-adapted), sequence (P02699 whole entry): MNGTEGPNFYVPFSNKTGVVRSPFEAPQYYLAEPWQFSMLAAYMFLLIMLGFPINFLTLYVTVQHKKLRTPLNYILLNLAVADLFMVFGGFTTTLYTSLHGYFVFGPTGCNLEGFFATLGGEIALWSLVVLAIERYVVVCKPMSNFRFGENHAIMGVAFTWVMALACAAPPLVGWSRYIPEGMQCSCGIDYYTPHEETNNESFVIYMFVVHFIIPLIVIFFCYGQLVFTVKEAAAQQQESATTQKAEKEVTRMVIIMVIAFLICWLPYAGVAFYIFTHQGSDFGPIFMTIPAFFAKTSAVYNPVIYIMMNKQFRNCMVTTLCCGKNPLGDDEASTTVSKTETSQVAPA

In the case of “rhodopsin (dark-adapted) (from UniProt P02699)”, the negative logarithm of the Kd (pKd) is 6.44.
